Consider one substance from patent US20060223116.

Data set [1] deals with T1, truncated GST-fusion T-bet protein, C-terminal fragment.
T1 sequence (Q9UL17 whole entry, species assumed, looked up): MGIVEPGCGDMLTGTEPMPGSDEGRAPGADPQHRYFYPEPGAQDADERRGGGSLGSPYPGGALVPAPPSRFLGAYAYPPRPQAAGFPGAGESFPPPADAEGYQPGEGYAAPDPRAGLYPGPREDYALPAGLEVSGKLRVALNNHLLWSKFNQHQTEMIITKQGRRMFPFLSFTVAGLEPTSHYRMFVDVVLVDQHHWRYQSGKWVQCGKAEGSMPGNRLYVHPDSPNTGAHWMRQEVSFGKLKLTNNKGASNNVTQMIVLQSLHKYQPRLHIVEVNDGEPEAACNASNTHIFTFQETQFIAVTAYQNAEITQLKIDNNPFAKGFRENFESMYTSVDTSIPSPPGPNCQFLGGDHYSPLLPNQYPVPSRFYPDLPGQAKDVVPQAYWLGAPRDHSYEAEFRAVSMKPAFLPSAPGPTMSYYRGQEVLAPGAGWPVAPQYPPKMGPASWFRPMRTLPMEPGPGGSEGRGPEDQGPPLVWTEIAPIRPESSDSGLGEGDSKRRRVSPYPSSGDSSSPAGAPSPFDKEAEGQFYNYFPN

The subject of data set [2] is T2, truncated GST-fusion T-bet protein, N-terminal fragment.
T2 sequence (Q9UL17 whole entry, species assumed, looked up): T1 sequence (Q9UL17 whole entry, species assumed, looked up)

In the case of “RLK-MYC (resting lymphocyte kinase, MYC-tagged)”, the “in vitro kinase assay (32P-ATP, autoradiography)” value in data set [1] was “both the N and C terminal fragments but not the DNA binding domain, could be phosphorylated by the Tec kinases, ITK and RLK”; in data set [2], “both the N and C terminal fragments but not the DNA binding domain, could be phosphorylated by the Tec kinases, ITK and RLK”.
